From patent US20100233157A1 (published 2010) come the findings set out here.

In assay [1] the target is T1, Recombinant human soluble Fas receptor (PeproTech, Cat. 310-20) (human, UniProt P25445 17-173).
T1 construct: Bought soluble form; also called sFas; rFas
T1 sequence (looked up): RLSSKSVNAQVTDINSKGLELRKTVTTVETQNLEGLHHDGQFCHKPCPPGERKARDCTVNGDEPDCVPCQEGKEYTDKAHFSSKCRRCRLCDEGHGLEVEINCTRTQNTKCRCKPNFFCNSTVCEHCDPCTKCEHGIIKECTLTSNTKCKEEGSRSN
Kind of assay: SPR (BIAcore 3000), soluble Fas immobilized on CM5 chip, antibody as analyte, bivalent analyte fit. The protocol: The interaction of F45D9 mAb's (γ-γ1 and γ4-isotypes) with immobilized soluble human Fas receptor was monitored by surface plasmon resonance detection using a BIAcore 3000 instrument. Recombinant human soluble Fas receptor (srFas) (PeproTech, cat. 310-20) was immobilized (concentration of 5 ug/ml in immobilization buffer: 10 mM sodium acetate pH 5.0) onto a CM5 sensor chip (BIAcore BR-1001-14) using an Amine Coupling kit (BIAcore, Cat. BR-1000-50), at a surface density of […] resonance units (RU). Deactivation of excess reactive groups on the chip surface was done by adding 1.0 M ethalonamine hydrochloride (pH 8.5). F45D9 mAb's-γ1 mAb were passed over the surface in equilibrium binding experiments at concentrations ranging from […] at a flow rate of 30 ul/min. Dilutions and binding experiments were conducted in 0.01 M HEPES (pH 7.4), 0.15 M NaCl, 3 mM EDTA, and 0.005% P-20 (BIAcore surfactant, BR-1001-88). Between each cycle 100 mM HCl was used to regenerate the surfaces at a flow rate 30 ul/min. KA and KD of F45D9 mAb's were-γ1 mAb was determined by fitting bivalentusing BIAcore models (BIAevaluation).

The target of assay [2] is T2, Mouse Fas on the cell surface (mouse, UniProt P25446 22-327).
T2 construct: whole, on cells; also called Fas on peripheral blood lymphocytes of BALB/c mice
T2 sequence (looked up): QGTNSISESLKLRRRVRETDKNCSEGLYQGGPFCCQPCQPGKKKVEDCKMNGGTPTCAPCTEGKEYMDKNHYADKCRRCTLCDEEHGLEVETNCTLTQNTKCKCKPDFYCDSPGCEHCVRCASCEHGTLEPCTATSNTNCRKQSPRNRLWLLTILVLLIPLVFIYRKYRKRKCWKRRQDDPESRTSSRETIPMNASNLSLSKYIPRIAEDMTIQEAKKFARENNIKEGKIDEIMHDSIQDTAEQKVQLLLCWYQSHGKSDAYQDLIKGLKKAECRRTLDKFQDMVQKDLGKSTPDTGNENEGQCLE
Briefly: flow cytometry histograms (FL1-H) on mouse PBL, FITC anti-human kappa secondary. An excerpt:
(§1) Reactivity of F45D9-γ1 or F45D9-γ4 mAb with Fas molecules of various species was initially screened using primary blood cells or lymphocytes cell lines. The binding of F45D9-γ1 or F45D9-γ4 mAb was explored by immunofluoresce staining and flow cytometry analysis, in human PBMC, purified human resting T cells, activated human T cells, peripheral blood lymphocytes (PBL) derived from BALE/c mice, rat, dog and pig, and in B cell lines or PBL derived from common marmoset, cynomolgus macaque, olive baboon, rhesus macaque and chimpanzee. Resting and activated human T cells were prepared as described in Example 7. B cells lines from monkeys were obtained from Biomedical Primate Research Center (Rijswijk, The Netherlands), and were cultured in RPMI 1640 medium supplemented with 2 mM glutamax, 100 UI/mL penicillin, 100 μg/mL streptomycin and 10% fetal bovine serum, at 37° C. and 5% CO₂. After washing in PBS cells (0.2−0.4×10⁶ cells/well) were incubated in staining buffer (PBS/1% FBS) containing F45D9-γ1 or human IgG control antibodies (10-20 ug/ml) in a 96-well U-bottom plate for 30 min on ice, in a 100 ul/well volume. Cells were then washed once with staining buffer, and further incubated for 30 min on ice with 1:30 dilution of FITC-conjugated rabbit F(ab′)₂ anti-human kappa (DakoCytomation Cat. F0434) or FITC-conjugated rabbit F(ab′)₂ anti-human IgG (DakoCytomation Cat. F0056). […]

In assay [3] the target is T3, Common marmoset Fas on the cell surface (common marmoset (Callithrix jacchus)).
T3 construct: whole, on cells
Kind of assay: flow cytometry on the marmoset B cell line 9601, FITC anti-human IgG secondary, MFI after subtraction of the control human γ1 staining.
Excerpt: as §1

Assay [4] deals with T4, Rhesus macaque Fas on the cell surface (rhesus macaque, UniProt Q9BDP2 26-333).
T4 construct: whole, on cells
T4 sequence (looked up): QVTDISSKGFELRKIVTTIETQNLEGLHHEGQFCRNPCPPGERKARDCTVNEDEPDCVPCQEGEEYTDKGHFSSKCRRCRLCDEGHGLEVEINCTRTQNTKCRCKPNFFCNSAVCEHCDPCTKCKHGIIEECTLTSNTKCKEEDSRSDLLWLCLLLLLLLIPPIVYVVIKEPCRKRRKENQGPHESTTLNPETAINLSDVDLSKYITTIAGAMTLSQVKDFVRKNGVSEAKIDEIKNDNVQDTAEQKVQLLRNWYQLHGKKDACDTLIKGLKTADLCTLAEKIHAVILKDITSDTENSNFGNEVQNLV
Kind of assay: flow cytometry histograms (FL1-H) on rhesus macaque cells (cell type not printed on the sheet), FITC anti-human kappa or FITC anti-human IgG secondary.
Excerpt: as §1

B1: F45D9-γ1 mAb (recombinant human mAb T17/B2-1G4, gamma-1 isotype) (antibody, V domains shown)
VH: QVQLQQWGAGLLKPSETLSLICAVYGGSFSTYYWTWIRQPPGKGLEWIGEINHRGTTNYSPSLKSRVTISVDTSKNHISLNLTSVTAADTALYYCARGLLWIGEGDYGLDVWGQGTTVTVSS
VL: DIQMTQSPSSLSASVGDRVTITCRASQGIRRWLAWYQQKPEKAPKSLIYAASSLQSGVPSRFSGSGSGTDFTLTISSLQPEDFATYYCQQYNSYPYTFGQGTKLEIKR
notes: Whole human IgG1 (γ1fa allotype) with human kappa light chain, made in CHO DG44 cells; also called IgG1; T17/L18/B2-1G4
Consider B1, for which the Kd in assay [1] is 0.0411 nM. Also, the binding result in assay [2] and in assay [4] was “no binding” each time. Moreover, the “EC50 (read off the curve)” value in assay [3] was about 1 µg/mL.

As usually defined, the EC50 (read off the curve) is the concentration giving half of the maximal effect. High values mean lower potency in that assay, low ones higher potency in that assay.
